Assay results: US20110052564A1

Assays:
[1] = target: fdH5-0, ultrafiltrated dH5-0 (H5 of A/Vietnam/1203/04) (influenza virus H5N1 strain A/Vietnam/1203/04); test: ELISA epitope scanning, immobilized H5 form; scaled
[2] = target: cdH5-0, crossbeta H5 (A/Vietnam/1203/04) after centrifugation (influenza virus H5N1 strain A/Vietnam/1203/04); test: as above
[3] = target: misfolded dH5-II (H5 of A/Vietnam/1203/04, heat cycling at pH 2) (influenza virus H5N1 strain A/Vietnam/1203/04); test: as above
[4] = target: crossbeta H5-0 (dH5-0), H5 of H5N1 strain A/Vietnam/1203/04 stock as supplied by Protein Sciences (influenza virus H5N1 strain A/Vietnam/1203/04); test: as above
[5] = target: misfolded dH5-III (H5 of A/Vietnam/1203/04, prolonged incubation at 5 C below the melting temperature) (influenza virus H5N1 strain A/Vietnam/1203/04); test: as above
[6] = target: misfolded dH5-I (H5 of A/Vietnam/1203/04, heat cycling at pH 7) (influenza virus H5N1 strain A/Vietnam/1203/04); test: as above
[7] = target: fdH5-0, ultrafiltrated dH5-0 (H5 of A/Vietnam/1203/04) (influenza virus H5N1 strain A/Vietnam/1203/04); test: ELISA, immobilized H5 form, tPA with excess epsilon-amino caproic acid
[8] = target: cdH5-0, crossbeta H5 (A/Vietnam/1203/04) after centrifugation (influenza virus H5N1 strain A/Vietnam/1203/04); test: as above
[9] = target: misfolded dH5-II (H5 of A/Vietnam/1203/04, heat cycling at pH 2) (influenza virus H5N1 strain A/Vietnam/1203/04); test: as above
[10] = target: crossbeta H5-0 (dH5-0), H5 of H5N1 strain A/Vietnam/1203/04 stock as supplied by Protein Sciences (influenza virus H5N1 strain A/Vietnam/1203/04); test: as above
[11] = target: non-treated H5 of H5N1 strain A/Vietnam/1203/04 (nH5), Protein Sciences (influenza virus H5N1 strain A/Vietnam/1203/04); test: ELISA, coated nH5 overlayed with 1:2000 diluted antibody
[12] = target: fdH5-0, ultrafiltrated dH5-0 (H5 of A/Vietnam/1203/04) (influenza virus H5N1 strain A/Vietnam/1203/04); test: ELISA, immobilized H5 form; normalized to cdH5-0
[13] = target: cdH5-0, crossbeta H5 (A/Vietnam/1203/04) after centrifugation (influenza virus H5N1 strain A/Vietnam/1203/04); test: ELISA, immobilized H5 form; normalized to cdH5-0
[14] = target: misfolded dH5-II (H5 of A/Vietnam/1203/04, heat cycling at pH 2) (influenza virus H5N1 strain A/Vietnam/1203/04); test: ELISA, immobilized H5 form; normalized to cdH5-0
[15] = target: misfolded dH5-III (H5 of A/Vietnam/1203/04, prolonged incubation at 5 C below the melting temperature) (influenza virus H5N1 strain A/Vietnam/1203/04); test: ELISA, immobilized H5 form; normalized to cdH5-0
[16] = target: misfolded dH5-I (H5 of A/Vietnam/1203/04, heat cycling at pH 7) (influenza virus H5N1 strain A/Vietnam/1203/04); test: ELISA, immobilized H5 form; normalized to cdH5-0
[17] = target: crossbeta H5-0 (dH5-0), H5 of H5N1 strain A/Vietnam/1203/04 stock as supplied by Protein Sciences (influenza virus H5N1 strain A/Vietnam/1203/04); test: ELISA, immobilized H5 form; normalized to cdH5-0; average of two measurements

## Rockland anti-H5 A/VN/1203/04 mouse monoclonal antibody, catalogue number 200-301-976
[1]
  relative affinity kD: 105 a.u.
[2]
  relative affinity kD: 100 a.u.
[3]
  relative affinity kD: 132 a.u.
[4]
  relative affinity kD: 88 a.u.
[5]
  relative affinity kD: 127 a.u.
[6]
  relative affinity kD: 0 a.u.

## tissue type plasminogen activator (tPA; Actilyse, Boehringer-Ingelheim) (from UniProt P00750 36-562) (enzyme)
[7]
  Kd: 342 nM
[8]
  Kd: 102 nM
[9]
  Kd: 19 nM
[10]
  Kd: 96 nM

## Rockland anti-H5 A/VN/1203/04 mouse monoclonal antibody, catalogue number 200-301-975
[1]
  relative affinity kD: 103 a.u.
[2]
  relative affinity kD: 100 a.u.
[3]
  relative affinity kD: 79 a.u.
[4]
  relative affinity kD: 102 a.u.
[5]
  relative affinity kD: 78 a.u.
[6]
  relative affinity kD: 47 a.u.
[11]
  ELISA signal at 1:2000 antibody dilution: 1.5

## Rockland anti-H5 A/VN/1203/04 mouse monoclonal antibody, catalogue number 200-301-977
[1]
  relative affinity kD: 93 a.u.
[2]
  relative affinity kD: 100 a.u.
[3]
  relative affinity kD: 0 a.u.
[4]
  relative affinity kD: 98 a.u.
[5]
  relative affinity kD: 35 a.u.
[6]
  relative affinity kD: 0 a.u.

## Rockland anti-H5 A/VN/1203/04 mouse monoclonal antibody, catalogue number 200-301-979
[1]
  relative affinity kD: 97 a.u.
[2]
  relative affinity kD: 100 a.u.
[3]
  relative affinity kD: 83 a.u.
[4]
  relative affinity kD: 103 a.u.
[5]
  relative affinity kD: 126 a.u.
[6]
  relative affinity kD: 125 a.u.

## Rockland anti-H5 A/VN/1203/04 mouse monoclonal antibody, catalogue number 200-301-978
[1]
  relative affinity kD: 107 a.u.
[2]
  relative affinity kD: 100 a.u.
[3]
  relative affinity kD: 31 a.u.
[4]
  relative affinity kD: 85 a.u.
[5]
  relative affinity kD: 112 a.u.
[6]
  relative affinity kD: 115 a.u.

## fourth and fifth finger domain of fibronectin (Fn F4-5) with C-terminal FLAG-tag (from UniProt P02751 184-273)
[12]
  Normalized affinity, kD (%): 69%
[13]
  Normalized affinity, kD (%): 100%
[14]
  Normalized affinity, kD (%): 88%
[15]
  Normalized affinity, kD (%): 6%
[16]
  Normalized affinity, kD (%): 0%
[17]
  Normalized affinity, kD (%): 103%
